These results are taken from patent US20210238260.

Bounds are passed on as bounds.

In data set [1] the target is plasma purified human AT-III (antithrombin III). The experiment in a line: same assay; ratio to K0.5 of Catalyst Biosciences WT FIXa; from lower limit value.
Data set [2] addresses plasma purified human AT-III (antithrombin III), in complex with full-length unfractionated heparin (UFH). Put plainly: ratio of K0.5 of the variant to K0.5 of Catalyst Biosciences WT FIXa, AT-III/UFH inhibition.
The target in data set [3] is plasma purified human antithrombin III (AT-III), in complex with unfractionated heparin (UFH). The experiment in a line: ratio of K0.5 for AT-III/UFH inhibition, variant over Catalyst Biosciences WT FIXa.

Sequence of Factor X, P00742 (P00742 whole entry, looked up): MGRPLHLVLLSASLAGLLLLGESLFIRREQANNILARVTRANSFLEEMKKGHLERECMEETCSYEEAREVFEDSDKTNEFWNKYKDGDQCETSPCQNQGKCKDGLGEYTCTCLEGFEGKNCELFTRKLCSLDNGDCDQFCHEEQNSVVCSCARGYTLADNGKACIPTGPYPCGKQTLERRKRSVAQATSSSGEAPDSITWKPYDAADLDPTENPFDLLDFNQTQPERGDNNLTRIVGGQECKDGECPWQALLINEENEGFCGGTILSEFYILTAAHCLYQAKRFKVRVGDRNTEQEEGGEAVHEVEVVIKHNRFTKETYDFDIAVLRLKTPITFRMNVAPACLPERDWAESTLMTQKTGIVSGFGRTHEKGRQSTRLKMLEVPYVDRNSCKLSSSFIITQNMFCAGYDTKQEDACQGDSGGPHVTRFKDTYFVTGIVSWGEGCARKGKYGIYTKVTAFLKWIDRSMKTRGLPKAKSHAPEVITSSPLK
Sequence of Factor X (FX), P00742 (P00742 whole entry, looked up): as above

B1: FIXa-D104N/K106S/R318Y/R338E/R403E/E410N (protein)
chain 1: YNSGKLEEFVQGNLERECMEEKCSFEEAREVFENTERTTEFWKQYVDGDQCESNPCLNGGSCKDDINSYECWCPFGFEGKNCELDVTCNIKNGRCEQFCKNSANNSVVCSCTEGYRLAENQKSCEPAVPFPCGRVSVSQTSKLTR
chain 2: VVGGEDAKPGQFPWQVVLNGKVDAFCGGSIVNEKWIVTAAHCVETGVKITVVAGEHNIEETEHTEQKRNVIRIIPHHNYNAAINKYNHDIALLELDEPLVLNSYVTPICIADKEYTNIFLKFGSGYVSGWGRVFHKGYSALVLQYLRVPLVDRATCLESTKFTIYNNMFCAGFHEGGRDSCQGDSGGPHVTEVEGTSFLTGIISWGEECAMKGKYGIYTKVSEYVNWIKNKTKLT
For the protein B1, in the data set with Factor X (FX), P00742, the kcat turned out to be 5.7 s⁻¹. Besides, the KM in the data set with Factor X, P00742 was 0.0385 µM. The K0.5-mut/K0.5-wt in data set [1] is greater than 517.

B2: FIXa variant K247N/N249S/N260S (mature FIX numbering) (protein)
chain 1: YNSGKLEEFVQGNLERECMEEKCSFEEAREVFENTERTTEFWKQYVDGDQCESNPCLNGGSCKDDINSYECWCPFGFEGKNCELDVTCNIKNGRCEQFCKNSADNKVVCSCTEGYRLAENQKSCEPAVPFPCGRVSVSQTSKLTR
chain 2: VVGGEDAKPGQFPWQVVLNGKVDAFCGGSIVNEKWIVTAAHCVETGVKITVVAGEHNIEETEHTEQNRSVIRIIPHHNYSAAINKYNHDIALLELDEPLVLNSYVTPICIADKEYTNIFLKFGSGYVSGWGRVFHKGRSALVLQYLRVPLVDRATCLRSTKFTIYNNMFCAGFHEGGRDSCQGDSGGPHVTEVEGTSFLTGIISWGEECAMKGKYGIYTKVSRYVNWIKEKTKLT
With B2, the K0.5-mut/K0.5-wt in data set [2] came to 8.1.

B3: FIXa-D104N/K106S/Y155F/K247N/N249S/N260S (protein)
chain 1: YNSGKLEEFVQGNLERECMEEKCSFEEAREVFENTERTTEFWKQYVDGDQCESNPCLNGGSCKDDINSYECWCPFGFEGKNCELDVTCNIKNGRCEQFCKNSANNSVVCSCTEGYRLAENQKSCEPAVPFPCGRVSVSQTSKLTR
chain 2: VVGGEDAKPGQFPWQVVLNGKVDAFCGGSIVNEKWIVTAAHCVETGVKITVVAGEHNIEETEHTEQNRSVIRIIPHHNYSAAINKYNHDIALLELDEPLVLNSYVTPICIADKEYTNIFLKFGSGYVSGWGRVFHKGRSALVLQYLRVPLVDRATCLRSTKFTIYNNMFCAGFHEGGRDSCQGDSGGPHVTEVEGTSFLTGIISWGEECAMKGKYGIYTKVSRYVNWIKEKTKLT
Regarding B3, in the data set with Factor X (FX), P00742, the Michaelis-Menten constant (KM) came to 0.0685 µM and the kcat of FX activation by FIXa (Xase complex with FVIIIa, PC/PS vesicles, Ca2+) was 0.5 s⁻¹. Also, in the data set with Factor X, P00742, the “% of WT kcat/KM” value worked out at 18%, the kcat was found to be 0.5 s⁻¹ and the kcat/KM amounted to 8.2e+06 M⁻¹ s⁻¹. The K0.5-mut/K0.5-wt in data set [3] worked out at 35.8 fold.

B4: FIXa-D104N/K106S/Y155F/R318Y/R338E/R403E/E410N (protein)
chain 1: YNSGKLEEFVQGNLERECMEEKCSFEEAREVFENTERTTEFWKQYVDGDQCESNPCLNGGSCKDDINSYECWCPFGFEGKNCELDVTCNIKNGRCEQFCKNSANNSVVCSCTEGYRLAENQKSCEPAVPFPCGRVSVSQTSKLTR
chain 2: VVGGEDAKPGQFPWQVVLNGKVDAFCGGSIVNEKWIVTAAHCVETGVKITVVAGEHNIEETEHTEQKRNVIRIIPHHNYNAAINKYNHDIALLELDEPLVLNSYVTPICIADKEYTNIFLKFGSGYVSGWGRVFHKGYSALVLQYLRVPLVDRATCLESTKFTIYNNMFCAGFHEGGRDSCQGDSGGPHVTEVEGTSFLTGIISWGEECAMKGKYGIYTKVSEYVNWIKNKTKLT
B4: the kcat in the data set with Factor X (FX), P00742 was determined as 8.5 s⁻¹. In the data set with Factor X, P00742, the KM turned out to be 0.048 µM. The K0.5-mut/K0.5-wt in data set [1] was greater than 517.

B5: FIXa variant Y155F/K247N/N249S/N260S (mature FIX numbering) (protein)
chain 1: YNSGKLEEFVQGNLERECMEEKCSFEEAREVFENTERTTEFWKQYVDGDQCESNPCLNGGSCKDDINSYECWCPFGFEGKNCELDVTCNIKNGRCEQFCKNSADNKVVCSCTEGYRLAENQKSCEPAVPFPCGRVSVSQTSKLTR
chain 2: VVGGEDAKPGQFPWQVVLNGKVDAFCGGSIVNEKWIVTAAHCVETGVKITVVAGEHNIEETEHTEQNRSVIRIIPHHNYSAAINKYNHDIALLELDEPLVLNSYVTPICIADKEYTNIFLKFGSGYVSGWGRVFHKGRSALVLQYLRVPLVDRATCLRSTKFTIYNNMFCAGFHEGGRDSCQGDSGGPHVTEVEGTSFLTGIISWGEECAMKGKYGIYTKVSRYVNWIKEKTKLT
For B5, the K0.5-mut/K0.5-wt in data set [2] amounted to 7.9.

B6: FIXa-Y155F/R318Y/R338E/R403E/E410N (protein)
chain 1: YNSGKLEEFVQGNLERECMEEKCSFEEAREVFENTERTTEFWKQYVDGDQCESNPCLNGGSCKDDINSYECWCPFGFEGKNCELDVTCNIKNGRCEQFCKNSADNKVVCSCTEGYRLAENQKSCEPAVPFPCGRVSVSQTSKLTR
chain 2: VVGGEDAKPGQFPWQVVLNGKVDAFCGGSIVNEKWIVTAAHCVETGVKITVVAGEHNIEETEHTEQKRNVIRIIPHHNYNAAINKYNHDIALLELDEPLVLNSYVTPICIADKEYTNIFLKFGSGYVSGWGRVFHKGYSALVLQYLRVPLVDRATCLESTKFTIYNNMFCAGFHEGGRDSCQGDSGGPHVTEVEGTSFLTGIISWGEECAMKGKYGIYTKVSEYVNWIKNKTKLT
As to B6, in the data set with Factor X (FX), P00742, the kcat is 5.3 s⁻¹. In addition, the KM in the data set with Factor X, P00742 turned out to be 0.0304 µM. For the same protein, in data set [1], the K0.5-mut/K0.5-wt was greater than 517.

B7: FIXa-A103N/N105S/Y155F/R318Y/R338E/R403E/E410N (protein)
chain 1: YNSGKLEEFVQGNLERECMEEKCSFEEAREVFENTERTTEFWKQYVDGDQCESNPCLNGGSCKDDINSYECWCPFGFEGKNCELDVTCNIKNGRCEQFCKNSNDSKVVCSCTEGYRLAENQKSCEPAVPFPCGRVSVSQTSKLTR
chain 2: VVGGEDAKPGQFPWQVVLNGKVDAFCGGSIVNEKWIVTAAHCVETGVKITVVAGEHNIEETEHTEQKRNVIRIIPHHNYNAAINKYNHDIALLELDEPLVLNSYVTPICIADKEYTNIFLKFGSGYVSGWGRVFHKGYSALVLQYLRVPLVDRATCLESTKFTIYNNMFCAGFHEGGRDSCQGDSGGPHVTEVEGTSFLTGIISWGEECAMKGKYGIYTKVSEYVNWIKNKTKLT
Turning to B7, in the data set with Factor X (FX), P00742, the kcat came to 6.4 s⁻¹. Moreover, in the data set with Factor X, P00742, the KM is 0.0507 µM. For the same protein, the K0.5-mut/K0.5-wt in data set [1] is greater than 517.

B8: FIXa variant D104N/K106S/Y155F/K247N/N249S/N260S (mature FIX numbering) (protein)
chain 1: YNSGKLEEFVQGNLERECMEEKCSFEEAREVFENTERTTEFWKQYVDGDQCESNPCLNGGSCKDDINSYECWCPFGFEGKNCELDVTCNIKNGRCEQFCKNSANNSVVCSCTEGYRLAENQKSCEPAVPFPCGRVSVSQTSKLTR
chain 2: VVGGEDAKPGQFPWQVVLNGKVDAFCGGSIVNEKWIVTAAHCVETGVKITVVAGEHNIEETEHTEQNRSVIRIIPHHNYSAAINKYNHDIALLELDEPLVLNSYVTPICIADKEYTNIFLKFGSGYVSGWGRVFHKGRSALVLQYLRVPLVDRATCLRSTKFTIYNNMFCAGFHEGGRDSCQGDSGGPHVTEVEGTSFLTGIISWGEECAMKGKYGIYTKVSRYVNWIKEKTKLT
On to B8, for which the K0.5-mut/K0.5-wt in data set [2] was found to be 35.8.

B9: FIXa-D104N/K106S/K247N/N249S/N260S (protein)
chain 1: YNSGKLEEFVQGNLERECMEEKCSFEEAREVFENTERTTEFWKQYVDGDQCESNPCLNGGSCKDDINSYECWCPFGFEGKNCELDVTCNIKNGRCEQFCKNSANNSVVCSCTEGYRLAENQKSCEPAVPFPCGRVSVSQTSKLTR
chain 2: VVGGEDAKPGQFPWQVVLNGKVDAFCGGSIVNEKWIVTAAHCVETGVKITVVAGEHNIEETEHTEQNRSVIRIIPHHNYSAAINKYNHDIALLELDEPLVLNSYVTPICIADKEYTNIFLKFGSGYVSGWGRVFHKGRSALVLQYLRVPLVDRATCLRSTKFTIYNNMFCAGFHEGGRDSCQGDSGGPHVTEVEGTSFLTGIISWGEECAMKGKYGIYTKVSRYVNWIKEKTKLT
As to B9, in the data set with Factor X (FX), P00742, the KM worked out at 0.0612 µM and the kcat of FX activation by FIXa (Xase complex with FVIIIa, PC/PS vesicles, Ca2+) was determined as 0.6 s⁻¹. Also, in the data set with Factor X, P00742, the “% of WT kcat/KM” value was found to be 22%, the kcat came out at 0.6 s⁻¹ and the kcat/KM came out at 9.8e+06 M⁻¹ s⁻¹. The K0.5-mut/K0.5-wt in data set [3] is 65.3 fold.

B10: FIXa-K247N/N249S/N260S/R318Y/R338E/R403E/E410N (protein)
chain 1: YNSGKLEEFVQGNLERECMEEKCSFEEAREVFENTERTTEFWKQYVDGDQCESNPCLNGGSCKDDINSYECWCPFGFEGKNCELDVTCNIKNGRCEQFCKNSADNKVVCSCTEGYRLAENQKSCEPAVPFPCGRVSVSQTSKLTR
chain 2: VVGGEDAKPGQFPWQVVLNGKVDAFCGGSIVNEKWIVTAAHCVETGVKITVVAGEHNIEETEHTEQNRSVIRIIPHHNYSAAINKYNHDIALLELDEPLVLNSYVTPICIADKEYTNIFLKFGSGYVSGWGRVFHKGYSALVLQYLRVPLVDRATCLESTKFTIYNNMFCAGFHEGGRDSCQGDSGGPHVTEVEGTSFLTGIISWGEECAMKGKYGIYTKVSEYVNWIKNKTKLT
Turning to B10, in the data set with Factor X (FX), P00742, the KM was 0.0622 µM and the kcat of FX activation by FIXa (Xase complex with FVIIIa, PC/PS vesicles, Ca2+) is 3.4 s⁻¹. Further, in the data set with Factor X, P00742, the “% of WT kcat/KM” value was determined as 217%, the kcat turned out to be 6 s⁻¹ and the kcat/KM worked out at 9.7e+07 M⁻¹ s⁻¹. Besides, the K0.5-mut/K0.5-wt in data set [3] came out at 288 fold.

B11: FIXa variant K247N/N249S/N260S/R318Y/R338E/R403E/E410N (mature FIX numbering) (protein)
chain 1: YNSGKLEEFVQGNLERECMEEKCSFEEAREVFENTERTTEFWKQYVDGDQCESNPCLNGGSCKDDINSYECWCPFGFEGKNCELDVTCNIKNGRCEQFCKNSADNKVVCSCTEGYRLAENQKSCEPAVPFPCGRVSVSQTSKLTR
chain 2: VVGGEDAKPGQFPWQVVLNGKVDAFCGGSIVNEKWIVTAAHCVETGVKITVVAGEHNIEETEHTEQNRSVIRIIPHHNYSAAINKYNHDIALLELDEPLVLNSYVTPICIADKEYTNIFLKFGSGYVSGWGRVFHKGYSALVLQYLRVPLVDRATCLESTKFTIYNNMFCAGFHEGGRDSCQGDSGGPHVTEVEGTSFLTGIISWGEECAMKGKYGIYTKVSEYVNWIKNKTKLT
B11: the K0.5-mut/K0.5-wt in data set [2] was 288.

B12: FIXa variant D104N/K106S/K247N/N249S/N260S (mature FIX numbering) (protein)
chain 1: YNSGKLEEFVQGNLERECMEEKCSFEEAREVFENTERTTEFWKQYVDGDQCESNPCLNGGSCKDDINSYECWCPFGFEGKNCELDVTCNIKNGRCEQFCKNSANNSVVCSCTEGYRLAENQKSCEPAVPFPCGRVSVSQTSKLTR
chain 2: VVGGEDAKPGQFPWQVVLNGKVDAFCGGSIVNEKWIVTAAHCVETGVKITVVAGEHNIEETEHTEQNRSVIRIIPHHNYSAAINKYNHDIALLELDEPLVLNSYVTPICIADKEYTNIFLKFGSGYVSGWGRVFHKGRSALVLQYLRVPLVDRATCLRSTKFTIYNNMFCAGFHEGGRDSCQGDSGGPHVTEVEGTSFLTGIISWGEECAMKGKYGIYTKVSRYVNWIKEKTKLT
For the protein B12, in data set [2], the K0.5-mut/K0.5-wt turned out to be 65.3.
